{"source": "paper PMC2789238", "key": {"[1]": {"biological_target": "ERK1, not dual-phosphorylated (inactive ERK dimer in U0126-inhibited embryos) (L. pictus (endogenous in eggs and embryos))", "test": "native gel or EMSA; whole-cell extracts of eggs/embryos at times after fertilization (control, or U0126 15 min before fertilisation); non-denaturing gel to maintain ERK as a dimer; Western blot with anti-dual-phosphorylated ERK or anti-ERK antibodies"}, "[2]": {"biological_target": "dual-phosphorylated ERK1 (fully activated ERK bis-phosphodimer) (L. pictus (endogenous in eggs and embryos))", "test": "native gel or EMSA; whole-cell extracts of eggs/embryos at times after fertilization (control, or U0126 15 min before fertilisation); non-denaturing gel to maintain ERK as a dimer; Western blot with anti-dual-phosphorylated ERK or anti-ERK antibodies"}, "[3]": {"biological_target": "cdk2 (cyclin-associated kinase activity in sea urchin cell extracts) (L. pictus (endogenous in eggs and embryos))"}}}
{"substance": "ERK1, not dual-phosphorylated (inactive ERK dimer in U0126-inhibited embryos) (enzyme)", "values": [{"measurement": "stoichiometry N", "setting": "[1]", "result": 2}]}
{"substance": "dual-phosphorylated ERK1 (fully activated ERK bis-phosphodimer) (enzyme)", "values": [{"measurement": "stoichiometry N", "setting": "[2]", "result": 2}]}
{"substance": "p27^kip1 recombinant protein (from UniProt P46414 1-197) (natural protein)", "values": [{"measurement": "inhibition of Rb C-terminus phosphorylation in the 4 min whole-cell extract with a mixture of Rb and MBP as substrates, with and without p27^kip1", "setting": "[3]", "result": 97, "unit": "%"}]}
